The text below walks through data of publication PMC4417048 (Nature cell biology, 2015).

For test [1], the target named is Syndetin (endogenous, human cells) (human (endogenous in H4 and HeLa)) (UniProt Q96JG6). Kind of test: sedimentation velocity on glycerol gradients + SEC.
Test [2] deals with T1, Syndetin (endogenous, human cells) (human (endogenous in H4 and HeLa), UniProt Q96JG6-1 1-964).
T1 sequence: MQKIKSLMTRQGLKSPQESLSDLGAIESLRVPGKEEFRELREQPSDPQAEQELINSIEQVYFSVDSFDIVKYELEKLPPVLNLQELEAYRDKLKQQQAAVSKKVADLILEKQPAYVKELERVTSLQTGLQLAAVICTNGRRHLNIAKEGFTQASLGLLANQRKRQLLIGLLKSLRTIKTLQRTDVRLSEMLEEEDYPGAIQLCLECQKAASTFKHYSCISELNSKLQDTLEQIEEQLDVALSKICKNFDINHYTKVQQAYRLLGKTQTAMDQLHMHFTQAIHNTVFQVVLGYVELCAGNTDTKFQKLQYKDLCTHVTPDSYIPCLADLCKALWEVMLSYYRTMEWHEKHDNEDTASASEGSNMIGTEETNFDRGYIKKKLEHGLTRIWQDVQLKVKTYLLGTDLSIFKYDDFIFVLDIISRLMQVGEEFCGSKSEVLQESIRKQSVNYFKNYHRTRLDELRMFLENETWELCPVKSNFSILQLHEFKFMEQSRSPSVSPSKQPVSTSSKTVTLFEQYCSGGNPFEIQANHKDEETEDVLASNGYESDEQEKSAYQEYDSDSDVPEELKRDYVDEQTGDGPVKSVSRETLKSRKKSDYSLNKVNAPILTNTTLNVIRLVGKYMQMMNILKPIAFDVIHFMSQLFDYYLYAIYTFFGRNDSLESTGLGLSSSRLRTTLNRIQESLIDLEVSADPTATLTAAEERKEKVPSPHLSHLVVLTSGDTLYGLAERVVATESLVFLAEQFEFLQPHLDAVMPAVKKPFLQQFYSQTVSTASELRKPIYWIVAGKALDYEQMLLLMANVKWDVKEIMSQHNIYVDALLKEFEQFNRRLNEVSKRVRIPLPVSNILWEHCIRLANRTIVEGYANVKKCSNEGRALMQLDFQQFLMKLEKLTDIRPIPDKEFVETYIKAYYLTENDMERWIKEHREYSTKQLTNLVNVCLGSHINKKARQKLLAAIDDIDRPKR
Kind of test: sedimentation velocity on glycerol gradients + SEC.

Take “Vps53 (endogenous, human cells) (from UniProt Q5VIR6 1-832) (natural protein)”: in test [1], the stoichiometry N was found to be 1.

B1: Vps52 (endogenous, human cells) (natural protein)
chain: MAAAATMAAAARELVLRAGTSDMEEEEGPLAGGPGLQEPLQLGELDITSDEFILDEVDVHIQANLEDELVKEALKTGVDLRHYSKQVELELQQIEQKSIRDYIQESENIASLHNQITACDAVLERMEQMLGAFQSDLSSISSEIRTLQEQSGAMNIRLRNRQAVRGKLGELVDGLVVPSALVTAILEAPVTEPRFLEQLQELDAKAAAVREQEARGTAACADVRGVLDRLRVKAVTKIREFILQKIYSFRKPMTNYQIPQTALLKYRFFYQFLLGNERATAKEIRDEYVETLSKIYLSYYRSYLGRLMKVQYEEVAEKDDLMGVEDTAKKGFFSKPSLRSRNTIFTLGTRGSVISPTELEAPILVPHTAQRGEQRYPFEALFRSQHYALLDNSCREYLFICEFFVVSGPAAHDLFHAVMGRTLSMTLKHLDSYLADCYDAIAVFLCIHIVLRFRNIAAKRDVPALDRYWEQVLALLWPRFELILEMNVQSVRSTDPQRLGGLDTRPHYITRRYAEFSSALVSINQTIPNERTMQLLGQLQVEVENFVLRVAAEFSSRKEQLVFLINNYDMMLGVLMERAADDSKEVESFQQLLNARTQEFIEELLSPPFGGLVAFVKEAEALIERGQAERLRGEEARVTQLIRGFGSSWKSSVESLSQDVMRSFTNFRNGTSIIQGALTQLIQLYHRFHRVLSQPQLRALPARAELINIHHLMVELKKHKPNF
B1: the “stoichiometry N” value in test [2] is 1.

B2: Ang2 (endogenous, human cells) (natural protein)
chain: MAAAAAAGPSPGSGPGDSPEGPEGEAPERRRKAHGMLKLYYGLSEGEAAGRPAGPDPLDPTDLNGAHFDPEVYLDKLRRECPLAQLMDSETDMVRQIRALDSDMQTLVYENYNKFISATDTIRKMKNDFRKMEDEMDRLATNMAVITDFSARISATLQDRHERITKLAGVHALLRKLQFLFELPSRLTKCVELGAYGQAVRYQGRAQAVLQQYQHLPSFRAIQDDCQVITARLAQQLRQRFREGGSGAPEQAECVELLLALGEPAEELCEEFLAHARGRLEKELRNLEAELGPSPPAPDVLEFTDHGGSGFVGGLCQVAAAYQELFAAQGPAGAEKLAAFARQLGSRYFALVERRLAQEQGGGDNSLLVRALDRFHRRLRAPGALLAAAGLADAATEIVERVARERLGHHLQGLRAAFLGCLTDVRQALAAPRVAGKEGPGLAELLANVASSILSHIKASLAAVHLFTAKEVSFSNKPYFRGEFCSQGVREGLIVGFVHSMCQTAQSFCDSPGEKGGATPPALLLLLSRLCLDYETATISYILTLTDEQFLVQDQFPVTPVSTLCAEARETARRLLTHYVKVQGLVISQMLRKSVETRDWLSTLEPRNVRAVMKRVVEDTTAIDVQVGLLYEEGVRKAQSSDSSKRTFSVYSSSRQQGRYAPSYTPSAPMDTNLLSNIQKLFSERIDVFSPVEFNKVSVLTGIIKISLKTLLECVRLRTFGRFGLQQVQVDCHFLQLYLWRFVADEELVHLLLDEVVASAALRCPDPVPMEPSVVEVICERG
Consider B2, for which, in test [2], the “stoichiometry N” value stood at 1.

Usually stoichiometry N stands for the number of molecules, sites or subunits per partner or assembly.
